The Immune Epitope Database (IEDB)
Blank lines part the entries; values can stand above or below the sequence they belong to.

Columns and labels:
[1] = molecular target: HLA-B*18:01; assay: IEDB peptide-MHC binding, purified MHC/direct/fluorescence; filed as Kd, often an IC50 or EC50 that approximates it; ≥ and ≤ were set here for values at or beyond the usual limits of such assays; settings: source organism: Mycobacterium avium 104
[2] = molecular target: HLA-B*39:01; assay: as above
[3] = molecular target: HLA-A*01:01; assay: as above
[4] = molecular target: HLA-A*29:02; assay: as above; settings: source organism: Mycobacterium avium 104
[5] = molecular target: HLA-B*57:01; assay: as above; settings: source organism: Mycobacterium avium 104
[6] = molecular target: HLA-B*58:01; assay: as above
[7] = molecular target: HLA-B*15:01; assay: as above
[8] = molecular target: HLA-B*27:05; assay: as above
[9] = molecular target: HLA-B*44:02; assay: as above; settings: source organism: Mycobacterium avium 104
[10] = molecular target: HLA-A*69:01; assay: as above
[11] = molecular target: HLA-A*11:01; assay: as above
[12] = molecular target: HLA-B*46:01; assay: as above
[13] = molecular target: HLA-A*03:01; assay: as above
[14] = molecular target: HLA-B*48:01; assay: as above; settings: source organism: Mycobacterium avium 104
[15] = molecular target: HLA-A*31:01; assay: as above
[16] = molecular target: HLA-A*02:01; assay: as above
[17] = molecular target: HLA-B*40:01; assay: as above
[18] = molecular target: HLA-B*51:01; assay: IEDB peptide-MHC binding, purified MHC/competitive/fluorescence; filed as Kd, often an IC50 or EC50 that approximates it; ≥ and ≤ were set here for values at or beyond the usual limits of such assays
[19] = molecular target: HLA-B*07:02; assay: as above; settings: source organism: Escherichia coli str. K-12 substr. MG1655
[20] = molecular target: HLA-C*06:02; assay: IEDB peptide-MHC binding, purified MHC/direct/fluorescence; filed as Kd, often an IC50 or EC50 that approximates it; ≥ and ≤ were set here for values at or beyond the usual limits of such assays; settings: source organism: Mycobacterium tuberculosis variant bovis BCG str. Pasteur 1173P2
[21] = molecular target: HLA-A*02:19; assay: as above; settings: source organism: Zaire ebolavirus
[22] = molecular target: HLA-A*68:02; assay: as above; settings: source organism: Zaire ebolavirus
[23] = molecular target: HLA-A*02:16; assay: as above; settings: source organism: Zaire ebolavirus
[24] = molecular target: HLA-A*02:03; assay: as above; settings: source organism: Zaire ebolavirus
[25] = molecular target: HLA-A*02:12; assay: as above; settings: source organism: Zaire ebolavirus
[26] = molecular target: HLA-A*02:11; assay: as above; settings: source organism: Zaire ebolavirus
[27] = molecular target: HLA-B*07:02; assay: as above
[28] = molecular target: HLA-B*18:01; assay: IEDB peptide-MHC binding, purified MHC/competitive/fluorescence; filed as Kd, often an IC50 or EC50 that approximates it; ≥ and ≤ were set here for values at or beyond the usual limits of such assays; settings: source organism: Zaire ebolavirus
[29] = molecular target: HLA-B*39:01; assay: as above; settings: source organism: Zaire ebolavirus
[30] = molecular target: HLA-B*15:17; assay: as above; settings: source organism: Zaire ebolavirus
[31] = molecular target: HLA-B*57:01; assay: as above; settings: source organism: Zaire ebolavirus
[32] = molecular target: HLA-B*27:03; assay: as above; settings: source organism: Zaire ebolavirus
[33] = molecular target: HLA-B*15:01; assay: as above; settings: source organism: Zaire ebolavirus
[34] = molecular target: HLA-A*69:01; assay: as above; settings: source organism: Zaire ebolavirus
[35] = molecular target: HLA-B*46:01; assay: as above; settings: source organism: Zaire ebolavirus
[36] = molecular target: HLA-A*02:01; assay: as above; settings: source organism: Zaire ebolavirus
[37] = molecular target: HLA-A*26:01; assay: as above; settings: source organism: Zaire ebolavirus
[38] = molecular target: HLA-A*24:02; assay: IEDB peptide-MHC binding, purified MHC/direct/fluorescence; filed as Kd, often an IC50 or EC50 that approximates it; ≥ and ≤ were set here for values at or beyond the usual limits of such assays; settings: source organism: Influenza A virus (A/Viet Nam/HN/2004(H5N1))
[39] = molecular target: HLA-B*08:02; assay: as above; settings: source organism: Influenza A virus(A/swine/Shandong/fNY/2003(H9N2))
[40] = molecular target: HLA-B*08:01; assay: as above; settings: source organism: Influenza A virus (A/Viet Nam/HN/2004(H5N1))
[41] = source organism: Mycobacterium avium 104
[42] = source organism: Zaire ebolavirus
[43] = source organism: Influenza A virus (A/Viet Nam/HN/2004(H5N1))

Sequence: VRDVVMPAL
Kd [1]: ≥ 20 µM
Kd [2, 41]: 67.4 nM
Kd [3, 41]: ≥ 20 µM
Kd [4]: ≥ 20 µM
Kd [5]: ≥ 20 µM
Kd [6, 41]: ≥ 20 µM
Kd [7, 41]: ≥ 20 µM
Kd [8, 41]: ≥ 20 µM
Kd [9]: ≥ 20 µM
Kd [10, 41]: ≥ 20 µM
Kd [11, 41]: ≥ 20 µM
Kd [12, 41]: ≥ 20 µM
Kd [13, 41]: ≥ 20 µM
Kd [14]: ≥ 20 µM
Kd [15, 41]: ≥ 20 µM
Kd [16, 41]: ≥ 20 µM
Kd [17, 41]: ≥ 20 µM

Kd ([18]; source organism: Escherichia coli str. K-12 substr. MG1655): ≥ 20 µM
Kd [19]: 868 nM
Sequence: APTADVAKI

Sequence: RARLWPRSM
Kd [20]: 701 nM

Sequence: TPSGKRLQI
Kd [21]: ≥ 20 µM
Kd [22]: ≥ 20 µM
Kd [23]: ≥ 20 µM
Kd [24]: ≥ 20 µM
Kd [25]: ≥ 20 µM
Kd [26]: ≥ 20 µM
Kd [13, 42]: ≥ 20 µM
Kd ([27]; source organism: Sudan ebolavirus - Maleo (1979)): 35.6 nM
Kd [28]: ≥ 20 µM
Kd [29]: ≥ 20 µM
Kd [30]: ≥ 20 µM
Kd [31]: ≥ 20 µM
Kd [32]: ≥ 20 µM
Kd [33]: ≥ 20 µM
Kd [34]: ≥ 20 µM
Kd [35]: ≥ 20 µM
Kd [18, 42]: ≥ 20 µM
Kd [36]: ≥ 20 µM
Kd [37]: ≥ 20 µM

Sequence: VHFRNQVKI
Kd [2, 43]: 1560 nM
Kd [38]: ≥ 20 µM
Kd [3, 43]: ≥ 20 µM
Kd [6, 43]: ≥ 20 µM
Kd [7, 43]: ≥ 20 µM
Kd [39]: ≥ 20 µM
Kd [8, 43]: ≥ 20 µM
Kd [40]: ≥ 20 µM
Kd [10, 43]: ≥ 20 µM
Kd [11, 43]: ≥ 20 µM
Kd [12, 43]: ≥ 20 µM
Kd [13, 43]: ≥ 20 µM
Kd [15, 43]: ≥ 20 µM
Kd [16, 43]: ≥ 20 µM
Kd [17, 43]: ≥ 20 µM
Kd [27, 43]: ≥ 20000 nM
